Measurements: IntAct's records for PubMed 20534488

B1: Ras-related protein Rab-5A (Homo sapiens), P20339-1 (parent)
chain: MASRGATRPNGPNTGNKICQFKLVLLGESAVGKSSLVLRFVKGQFHEFQESTIGAAFLTQTVCLDDTTVKFEIWDTAGQERYHSLAPMYYRGAQAAIVVYDITNEESFARAKNWVKELQRQASPNIVIALSGNKADLANKRAVDFQEAQSYADDNSLLFMETSAKTSMNVNEIFMAIAKKLPKNEPQNPGANSARGRGVDLTEPTQPTRNQCCSN
B2: Ras-related protein Rab-5C (Homo sapiens), P51148 (parent)
chain: MAGRGGAARPNGPAAGNKICQFKLVLLGESAVGKSSLVLRFVKGQFHEYQESTIGAAFLTQTVCLDDTTVKFEIWDTAGQERYHSLAPMYYRGAQAAIVVYDITNTDTFARAKNWVKELQRQASPNIVIALAGNKADLASKRAVEFQEAQAYADDNSLLFMETSAKTAMNVNEIFMAIAKKLPKNEPQNATGAPGRNRGVDLQENNPASRSQCCSN
partner: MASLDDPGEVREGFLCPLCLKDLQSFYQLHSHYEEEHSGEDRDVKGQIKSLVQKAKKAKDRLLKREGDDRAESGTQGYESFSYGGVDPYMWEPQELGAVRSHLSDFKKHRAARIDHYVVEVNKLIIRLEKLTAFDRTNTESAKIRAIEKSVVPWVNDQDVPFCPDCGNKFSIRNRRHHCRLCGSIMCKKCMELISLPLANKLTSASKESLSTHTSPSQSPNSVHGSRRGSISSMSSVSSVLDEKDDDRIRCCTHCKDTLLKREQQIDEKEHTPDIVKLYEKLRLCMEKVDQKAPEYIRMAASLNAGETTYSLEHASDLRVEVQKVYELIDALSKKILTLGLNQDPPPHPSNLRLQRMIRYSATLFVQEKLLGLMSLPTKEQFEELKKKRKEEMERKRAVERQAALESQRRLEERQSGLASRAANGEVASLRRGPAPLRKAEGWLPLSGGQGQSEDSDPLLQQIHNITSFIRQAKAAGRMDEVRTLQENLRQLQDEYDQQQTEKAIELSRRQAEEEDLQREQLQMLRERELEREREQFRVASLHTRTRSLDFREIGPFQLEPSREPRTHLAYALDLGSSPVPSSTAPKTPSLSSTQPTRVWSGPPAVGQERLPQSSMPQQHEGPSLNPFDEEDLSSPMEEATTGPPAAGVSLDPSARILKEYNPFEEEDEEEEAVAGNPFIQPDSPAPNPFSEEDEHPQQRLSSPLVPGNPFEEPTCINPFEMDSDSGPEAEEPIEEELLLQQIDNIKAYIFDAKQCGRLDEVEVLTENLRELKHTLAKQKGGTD
B3: Ras-related protein Rab-5C (Homo sapiens), P51148 (parent)
chain: B2 chain

Variants of: B1
Details: with eea1_human EEA1, Q15075
eea1_human EEA1, Q15075, sequence (Q15075 whole entry): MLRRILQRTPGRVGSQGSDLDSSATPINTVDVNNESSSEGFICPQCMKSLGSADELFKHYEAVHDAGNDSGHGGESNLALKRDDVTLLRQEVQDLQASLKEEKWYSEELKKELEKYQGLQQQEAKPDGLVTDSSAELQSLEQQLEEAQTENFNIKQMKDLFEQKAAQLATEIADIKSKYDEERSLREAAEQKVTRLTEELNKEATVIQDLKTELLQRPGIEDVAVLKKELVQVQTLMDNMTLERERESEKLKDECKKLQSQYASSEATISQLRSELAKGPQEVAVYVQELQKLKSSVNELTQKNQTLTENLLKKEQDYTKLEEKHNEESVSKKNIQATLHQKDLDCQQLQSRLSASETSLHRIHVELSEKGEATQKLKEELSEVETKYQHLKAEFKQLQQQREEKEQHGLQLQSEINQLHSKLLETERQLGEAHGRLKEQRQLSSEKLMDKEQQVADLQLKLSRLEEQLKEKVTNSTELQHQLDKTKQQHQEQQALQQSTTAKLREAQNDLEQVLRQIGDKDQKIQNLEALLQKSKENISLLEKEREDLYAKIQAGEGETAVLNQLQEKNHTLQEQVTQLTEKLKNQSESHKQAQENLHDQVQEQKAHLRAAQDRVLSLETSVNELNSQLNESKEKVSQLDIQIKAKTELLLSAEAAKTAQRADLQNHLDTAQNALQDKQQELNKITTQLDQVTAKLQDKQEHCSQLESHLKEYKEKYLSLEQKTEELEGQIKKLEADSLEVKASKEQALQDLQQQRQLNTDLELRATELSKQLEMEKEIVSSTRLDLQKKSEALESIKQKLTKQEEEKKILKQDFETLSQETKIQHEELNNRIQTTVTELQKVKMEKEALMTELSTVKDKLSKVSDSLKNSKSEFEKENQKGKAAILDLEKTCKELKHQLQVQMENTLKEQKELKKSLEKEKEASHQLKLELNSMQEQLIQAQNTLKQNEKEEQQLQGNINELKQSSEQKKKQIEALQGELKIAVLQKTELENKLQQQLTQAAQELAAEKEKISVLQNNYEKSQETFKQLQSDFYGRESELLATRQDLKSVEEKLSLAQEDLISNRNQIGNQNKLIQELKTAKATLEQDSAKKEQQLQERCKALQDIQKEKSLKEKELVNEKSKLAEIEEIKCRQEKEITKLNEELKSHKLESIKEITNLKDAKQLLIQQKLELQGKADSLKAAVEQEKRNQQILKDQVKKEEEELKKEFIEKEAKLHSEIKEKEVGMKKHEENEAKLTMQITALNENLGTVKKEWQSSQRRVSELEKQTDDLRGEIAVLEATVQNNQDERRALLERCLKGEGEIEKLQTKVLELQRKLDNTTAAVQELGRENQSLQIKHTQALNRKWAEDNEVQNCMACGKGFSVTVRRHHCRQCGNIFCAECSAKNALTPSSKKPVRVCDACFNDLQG

Variant | effect of a mutation on the interaction
MASRGATRPNGPNTGNKICQFKLVLLGESAVGKSSLVLRFVKGQFHEFQESTIGAAFLTQTVCLDDTTVKFEIWDTAGLERYHSLAPMYYRGAQAAIVVYDITNEESFARAKNWVKELQRQASPNIVIALSGNKADLANKRAVDFQEAQSYADDNSLLFMETSAKTSMNVNEIFMAIAKKLPKNEPQNPGANSARGRGVDLTEPTQPTRNQCCSN [Q79L] | with no effect

Variants of: B2
Details: with rbns5_human RBSN

Variant | effect of a mutation on the interaction
MAGRGGAARPNGPAAGNKICQFKLVLLGESAVGKSSLVLRFVEGQFHEYQESTIGAAFLTQTVCLDDTTVKFEIWDTAGQERYHSLAPMYYRGAQAAIVVYDITNTDTFARAKNWVKELQRQASPNIVIALAGNKADLASKRAVEFQEAQAYADDNSLLFMETSAKTAMNVNEIFMAIAKKLPKNEPQNATGAPGRNRGVDLQENNPASRSQCCSN [K43E] | disrupting interaction strength
MAGRGGAARPNGPAAGNKICQFKLVLLGESAVGKSSLVLRFVKGQFHPYQESTIGAAFLTQTVCLDDTTVKFEIWDTAGQERYHSLAPMYYRGAQAAIVVYDITNTDTFARAKNWVKELQRQASPNIVIALAGNKADLASKRAVEFQEAQAYADDNSLLFMETSAKTAMNVNEIFMAIAKKLPKNEPQNATGAPGRNRGVDLQENNPASRSQCCSN [E48P] | with no effect
MAGRGGAARPNGPAAGNKICQFKLVLLGESAVGKSSLVLRFVKGQFHENQESTIGAAFLTQTVCLDDTTVKFEIWDTAGQERYHSLAPMYYRGAQAAIVVYDITNTDTFARAKNWVKELQRQASPNIVIALAGNKADLASKRAVEFQEAQAYADDNSLLFMETSAKTAMNVNEIFMAIAKKLPKNEPQNATGAPGRNRGVDLQENNPASRSQCCSN [Y49N] | with no effect
MAGRGGAARPNGPAAGNKICQFKLVLLGESAVGKSSLVLRFVKGQFHEYIESTIGAAFLTQTVCLDDTTVKFEIWDTAGQERYHSLAPMYYRGAQAAIVVYDITNTDTFARAKNWVKELQRQASPNIVIALAGNKADLASKRAVEFQEAQAYADDNSLLFMETSAKTAMNVNEIFMAIAKKLPKNEPQNATGAPGRNRGVDLQENNPASRSQCCSN [Q50I] | with no effect
MAGRGGAARPNGPAAGNKICQFKLVLLGESAVGKSSLVLRFVKGQFHEYQNSTIGAAFLTQTVCLDDTTVKFEIWDTAGQERYHSLAPMYYRGAQAAIVVYDITNTDTFARAKNWVKELQRQASPNIVIALAGNKADLASKRAVEFQEAQAYADDNSLLFMETSAKTAMNVNEIFMAIAKKLPKNEPQNATGAPGRNRGVDLQENNPASRSQCCSN [E51N] | decreasing interaction strength
MAGRGGAARPNGPAAGNKICQFKLVLLGESAVGKSSLVLRFVKGQFHEYQEPTIGAAFLTQTVCLDDTTVKFEIWDTAGQERYHSLAPMYYRGAQAAIVVYDITNTDTFARAKNWVKELQRQASPNIVIALAGNKADLASKRAVEFQEAQAYADDNSLLFMETSAKTAMNVNEIFMAIAKKLPKNEPQNATGAPGRNRGVDLQENNPASRSQCCSN [S52P] | decreasing interaction strength
MAGRGGAARPNGPAAGNKICQFKLVLLGESAVGKSSLVLRFVKGQFHEYQESTIGADFLTQTVCLDDTTVKFEIWDTAGQERYHSLAPMYYRGAQAAIVVYDITNTDTFARAKNWVKELQRQASPNIVIALAGNKADLASKRAVEFQEAQAYADDNSLLFMETSAKTAMNVNEIFMAIAKKLPKNEPQNATGAPGRNRGVDLQENNPASRSQCCSN [A57D] | disrupting interaction strength
MAGRGGAARPNGPAAGNKICQFKLVLLGESAVGKSSLVLRFVKGQFHEYQESTIGASFLTQTVCLDDTTVKFEIWDTAGQERYHSLAPMYYRGAQAAIVVYDITNTDTFARAKNWVKELQRQASPNIVIALAGNKADLASKRAVEFQEAQAYADDNSLLFMETSAKTAMNVNEIFMAIAKKLPKNEPQNATGAPGRNRGVDLQENNPASRSQCCSN [A57S] | decreasing interaction strength
MAGRGGAARPNGPAAGNKICQFKLVLLGESAVGKSSLVLRFVKGQFHEYQESTIGAAFMTQTVCLDDTTVKFEIWDTAGQERYHSLAPMYYRGAQAAIVVYDITNTDTFARAKNWVKELQRQASPNIVIALAGNKADLASKRAVEFQEAQAYADDNSLLFMETSAKTAMNVNEIFMAIAKKLPKNEPQNATGAPGRNRGVDLQENNPASRSQCCSN [L59M] | with no effect
MAGRGGAARPNGPAAGNKICQFKLVLLGESAVGKSSLVLRFVKGQFHEYQESTIGAAFLTKTVCLDDTTVKFEIWDTAGQERYHSLAPMYYRGAQAAIVVYDITNTDTFARAKNWVKELQRQASPNIVIALAGNKADLASKRAVEFQEAQAYADDNSLLFMETSAKTAMNVNEIFMAIAKKLPKNEPQNATGAPGRNRGVDLQENNPASRSQCCSN [Q61K] | with no effect
MAGRGGAARPNGPAAGNKICQFKLVLLGESAVGKSSLVLRFVKGQFHEYQESTIGAAFLTQTVCLDDTTVKFLIWDTAGQERYHSLAPMYYRGAQAAIVVYDITNTDTFARAKNWVKELQRQASPNIVIALAGNKADLASKRAVEFQEAQAYADDNSLLFMETSAKTAMNVNEIFMAIAKKLPKNEPQNATGAPGRNRGVDLQENNPASRSQCCSN [E73L] | with no effect
MAGRGGAARPNGPAAGNKICQFKLVLLGESAVGKSSLVLRFVKGQFHEYQESTIGAAFLTQTVCLDDTTVKFEIWDTAGQERFHSLAPMYYRGAQAAIVVYDITNTDTFARAKNWVKELQRQASPNIVIALAGNKADLASKRAVEFQEAQAYADDNSLLFMETSAKTAMNVNEIFMAIAKKLPKNEPQNATGAPGRNRGVDLQENNPASRSQCCSN [Y83F] | with no effect
MAGRGGAARPNGPAAGNKICQFKLVLLGESAVGKSSLVLRFVKGQFHEYQESTIGAAFLTQTVCLDDTTVKFEIWDTAGQERYRSLAPMYYRGAQAAIVVYDITNTDTFARAKNWVKELQRQASPNIVIALAGNKADLASKRAVEFQEAQAYADDNSLLFMETSAKTAMNVNEIFMAIAKKLPKNEPQNATGAPGRNRGVDLQENNPASRSQCCSN [H84R] | decreasing interaction strength
MAGRGGAARPNGPAAGNKICQFKLVLLGESAVGKSSLVLRFVKGQFHEYQESTIGAAFLTQTVCLDDTTVKFEIWDTAGQERYHSLAPMYYRGSQAAIVVYDITNTDTFARAKNWVKELQRQASPNIVIALAGNKADLASKRAVEFQEAQAYADDNSLLFMETSAKTAMNVNEIFMAIAKKLPKNEPQNATGAPGRNRGVDLQENNPASRSQCCSN [A94S] | increasing interaction strength

Variants of: B3
Details: with eea1_human EEA1, Q15075

Variant | effect of a mutation on the interaction
MAGRGGAARPNGPAAGNKICQFKLVLLGESAVGKSSLVLRFVKGQFHEYQESTIGAAFLTQTVCLDDTTVKFEIWDTAGQERYHSLAPAYYRGAQAAIVVYDITNTDTFARAKNWVKELQRQASPNIVIALAGNKADLASKRAVEFQEAQAYADDNSLLFMETSAKTAMNVNEIFMAIAKKLPKNEPQNATGAPGRNRGVDLQENNPASRSQCCSN [M89A] | disrupting interaction strength
MAGRGGAARPNGPAAGNKICQFKLVLLGESAVGKSSLVLRFVKGQFHEYQESTIGADFLTQTVCLDDTTVKFEIWDTAGQERYHSLAPMYYRGAQAAIVVYDITNTDTFARAKNWVKELQRQASPNIVIALAGNKADLASKRAVEFQEAQAYADDNSLLFMETSAKTAMNVNEIFMAIAKKLPKNEPQNATGAPGRNRGVDLQENNPASRSQCCSN [A57D] | decreasing interaction strength
MAGRGGAARPNGPAAGNKICQFKLVLLGESAVGKSSLVLRFVKGQFHEYQESTIGAEFLTQTVCLDDTTVKFEIWDTAGQERYHSLAPMYYRGAQAAIVVYDITNTDTFARAKNWVKELQRQASPNIVIALAGNKADLASKRAVEFQEAQAYADDNSLLFMETSAKTAMNVNEIFMAIAKKLPKNEPQNATGAPGRNRGVDLQENNPASRSQCCSN [A57E] | disrupting interaction strength
MAGRGGAARPNGPAAGNKICQFKLVLLGESAVGKSSLVLRFVKGQFHEYQESTIQAAFLTQTVCLDDTTVKFEIWDTAGQERYHSLAPMYYRGAQAAIVVYDITNTDTFARAKNWVKELQRQASPNIVIALAGNKADLASKRAVEFQEAQAYADDNSLLFMETSAKTAMNVNEIFMAIAKKLPKNEPQNATGAPGRNRGVDLQENNPASRSQCCSN [G55Q] | disrupting interaction strength
MAGRGGAARPNGPAAGNKICQFKLVLLGESAVGKSSLVLRFVKGQFHEYQESTIGAAFLTQTVCLDDTTVKFEIWDTAGQERYHSLAPSYYRGAQAAIVVYDITNTDTFARAKNWVKELQRQASPNIVIALAGNKADLASKRAVEFQEAQAYADDNSLLFMETSAKTAMNVNEIFMAIAKKLPKNEPQNATGAPGRNRGVDLQENNPASRSQCCSN [M89S] | disrupting interaction strength
MAGRGGAARPNGPAAGNKICQFKLVLLGESAVGKSSLVLRFVKGQFHEYQESTIGASFLTQTVCLDDTTVKFEIWDTAGQERYHSLAPMYYRGAQAAIVVYDITNTDTFARAKNWVKELQRQASPNIVIALAGNKADLASKRAVEFQEAQAYADDNSLLFMETSAKTAMNVNEIFMAIAKKLPKNEPQNATGAPGRNRGVDLQENNPASRSQCCSN [A57S] | disrupting interaction strength
